From PMC12529230, “The Lrs14‐Like AbfR1 Homolog From Metallosphaera sedula Is a Nucleoid‐Organizing Protein” (MicrobiologyOpen, 2025)

T1: AbfR1Ms (Metallosphaera sedula DSM5348, UniProt A4YIR2 1-115)
T1 sequence: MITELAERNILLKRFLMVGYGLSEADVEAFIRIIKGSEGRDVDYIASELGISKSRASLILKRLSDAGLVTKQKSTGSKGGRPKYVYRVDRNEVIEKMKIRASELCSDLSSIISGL

B1: AbfR1 Ms (recombinant, C-terminal His-tag) (natural protein, Metallosphaera sedula, UniProt A4YIR2 1-115, looked up)
chain: T1 sequence
notes: 115 amino acids, estimated MW 12.7 kDa; codon-optimized synthetic gene fragment (446 bp) cloned NdeI/XhoI into pET24a; No tag cleavage is described; A disulfide bridge between the two chains is proposed (C105, from an AlphaFold model and DTT sensitivity); also called Lrs14-like AbfR1 homolog from Metallosphaera sedula; HhcR; source: E. coli Rosetta (DE3), pET24a; purified (heat treatment 70°C, …)
B2: ORF abfR1Sa (dsDNA)
DNA 1: GTCTTTCTGAATCAGAAATAGACACATTTCTAAGGATACTTGAAAGCAAAGAAGGTAAGGATATTGATGCAATATCTGCAGAACTAAAAATTAGTAAAAG
DNA 2: CTTTTACTAATTTTTAGTTCTGCAGATATTGCATCAATATCCTTACCTTCTTTGCTTTCAAGTATCCTTAGAAATGTGTCTATTTCTGATTCAGAAAGAC

Legend:
[1] = molecular target: the molecule itself; test: SEC; Enrich SEC 650 10 x 300 column, 20 mM HEPES, 150 mM NaCl, 1 mM DTT, 5% glycerol, pH 7.5; AbfR1 Ms concentrated to 1.9 mg/mL; MW from a standard curve
[2] = molecular target: T1, AbfR1Ms; test: EMSA; apparent; salmon sperm competitor DNA; EMSA: 20 mM Tris-HCl pH 8.0, 50 mM NaCl, 0.4 mM EDTA, 0.1 mM DTT, 1 mM MgCl2, 12.5% glycerol, 25 ug/mL sonicated salmon sperm DNA, 25 min at 37 C; AFM: same buffer, 15 min at 37 C, then NiCl2/HEPES adsorption on mica; details: protein: recombinant; tags: C-terminal His; chain copies: 2; label: 5'-32P on one strand; blunt

| Binder | stoichiometry N [1] | Kd [2] [nM] |
| --- | --- | --- |
| B1 | 2 | – |
| B2 | – | 546 |
